We go through four molecules from patent US12365732 (23ANDME, dated 2025).

The target in assay [1] is T1, hu-CD96 Fc (human, biotinylated in Table 16).
T1 construct: also called biotinylated hu-CD96-Fc
The assay is described as follows: SPR (Biacore), Fab. A general note: In SPR one partner is held on a chip, and binding of the other changes the refractive index at the surface.

For the next assay, the target named is T2, cy-CD96 Fc (cynomolgus monkey, biotinylated in Table 16).
T2 construct: also called biotinylated cy-CD96-Fc
The assay is described as follows: SPR (Biacore), Fab.

The target in assay [2] is T3, hu-CD96 (soluble, isoform 2 extracellular domain) (human, UniProt P40200 22-516, biotinylated in Octet and blocking ELISA).
T3 construct: the assays name only hu-CD96; also called hCD96; biotinylated hu-CD96
T3 sequence: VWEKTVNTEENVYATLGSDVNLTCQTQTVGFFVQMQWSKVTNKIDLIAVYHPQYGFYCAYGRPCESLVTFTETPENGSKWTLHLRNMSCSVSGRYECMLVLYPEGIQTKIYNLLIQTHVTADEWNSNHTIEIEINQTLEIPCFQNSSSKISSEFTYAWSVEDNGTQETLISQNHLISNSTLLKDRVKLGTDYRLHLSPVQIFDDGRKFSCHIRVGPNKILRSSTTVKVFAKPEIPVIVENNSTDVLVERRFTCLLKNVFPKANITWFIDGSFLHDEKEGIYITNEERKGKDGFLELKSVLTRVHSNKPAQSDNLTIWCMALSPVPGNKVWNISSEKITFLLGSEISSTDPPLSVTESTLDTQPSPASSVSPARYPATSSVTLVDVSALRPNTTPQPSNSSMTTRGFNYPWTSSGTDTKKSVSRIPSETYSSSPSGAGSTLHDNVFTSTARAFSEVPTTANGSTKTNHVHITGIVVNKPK
Put plainly: CD155 blocking ELISA.

Assay [3] deals with T4, cy-CD96 (soluble, extracellular domain) (cynomolgus monkey, UniProt P40200 22-516 (human entry), biotinylated in Octet and blocking ELISA).
T4 construct: the assays name only cy-CD96; also called biotinylated cy-CD96
T4 chain: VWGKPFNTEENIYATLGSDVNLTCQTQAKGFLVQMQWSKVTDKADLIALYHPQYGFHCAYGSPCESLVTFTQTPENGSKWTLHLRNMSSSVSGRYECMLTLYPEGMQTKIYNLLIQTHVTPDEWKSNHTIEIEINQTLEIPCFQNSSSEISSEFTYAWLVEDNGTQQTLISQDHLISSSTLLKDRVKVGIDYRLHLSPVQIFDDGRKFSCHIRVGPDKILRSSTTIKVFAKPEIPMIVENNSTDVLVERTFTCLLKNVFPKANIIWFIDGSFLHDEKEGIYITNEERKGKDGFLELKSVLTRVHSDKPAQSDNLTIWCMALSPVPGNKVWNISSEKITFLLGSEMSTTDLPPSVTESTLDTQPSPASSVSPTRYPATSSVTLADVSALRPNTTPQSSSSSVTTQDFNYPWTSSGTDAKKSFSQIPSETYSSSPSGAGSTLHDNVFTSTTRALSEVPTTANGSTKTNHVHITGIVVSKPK
The assay is described as follows: CD155 blocking ELISA.

In assay [4] the target is T3, hu-CD96 (soluble, isoform 2 …). The assay is described as follows: BLI (Octet), biotin-CD96 on SA, Fab analyte.
The target in assay [5] is T4, cy-CD96 (soluble, extracellular domain). Put plainly: BLI (Octet), biotin-CD96 on SA, Fab analyte.
Assay [6] deals with T5, hu-CD96 isoform 2 on CHO cells (human, UniProt P40200 22-585).
T5 construct: also called CHO-CD96 (isoform 2); CD96-CHOs
T5 sequence: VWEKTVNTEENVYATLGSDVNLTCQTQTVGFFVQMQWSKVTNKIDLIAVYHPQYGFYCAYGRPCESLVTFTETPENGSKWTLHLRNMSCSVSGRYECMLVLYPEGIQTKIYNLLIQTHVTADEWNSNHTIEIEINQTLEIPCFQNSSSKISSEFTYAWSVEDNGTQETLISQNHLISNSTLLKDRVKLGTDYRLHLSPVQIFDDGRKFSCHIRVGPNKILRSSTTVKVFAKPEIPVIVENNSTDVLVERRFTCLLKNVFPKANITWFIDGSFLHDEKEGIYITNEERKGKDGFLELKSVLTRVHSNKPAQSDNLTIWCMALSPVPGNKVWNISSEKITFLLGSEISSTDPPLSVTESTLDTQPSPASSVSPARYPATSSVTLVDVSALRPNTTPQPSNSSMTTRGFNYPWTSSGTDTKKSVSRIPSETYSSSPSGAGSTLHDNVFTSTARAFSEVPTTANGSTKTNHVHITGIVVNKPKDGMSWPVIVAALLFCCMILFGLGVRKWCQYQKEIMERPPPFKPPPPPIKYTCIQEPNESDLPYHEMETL
Put plainly: FACS, CD155-Fc-FLAG 10 nM, Ab 4 nM. Here is the method:
(§1) CHO cells stably expressing isoform 2 of hu-CD96 (Origene, catalog #RC221005) were incubated with anti-CD96 antibodies for 20 minutes at 4° C. The cells were washed, and then incubated with 10 nM human CD155-Fc-FLAG for 30 minutes at 4° C. Cells were washed, and then human CD155-Fc-FLAG binding was detected by incubation with anti-FLAG-APC (Columbia Biosciences, catalog #D3-1718-1MG) for 20 minutes at 4° C. Cell binding was analyzed by flow cytometry with a CytoFLEX (Beckman Coulter). CD155 binding is represented as median fluorescence intensity (MedFI).
(§2) As shown in Table 20 (below), the anti-CD96 antibodies, mAb1.v7.NGS8, mAb1.v7.NGS9, mAb1.v7.NGS10, mAb1.v7.NGS11, and h10G1 inhibited soluble hu-CD155 binding to CD96-expressing CHO cells dose-dependently and potently. The antibody NK92.39 (Fuchs et al., 2004; Biolegend catalog #338405) inhibited receptor binding similarly.
(In general: A flow cytometer gives signals particle by particle.)

The target of assay [7] is T5, hu-CD96 isoform 2 on CHO cells. Put plainly: FACS, CD155-Fc-FLAG 10 nM, Ab 20 nM. As for the experimental part:
as §1, §2

For assay [8] the target is unchanged. Put plainly: FACS, CD155-Fc-FLAG 10 nM, Ab 0.8 nM. Here is the method: as §1, §2
Assay [9] shares this target. Put plainly: FACS, CD155-Fc-FLAG 10 nM, Ab 100 nM. Here is the method: as §1, §2
For assay [10] the target is unchanged. Put plainly: FACS, CD155-Fc-FLAG 10 nM, Ab 0.16 nM. Here is the method:
as §1, §2

Assay [11] has the same target. The assay is described as follows: FACS, CD155-Fc-FLAG 10 nM, Ab 0.032 nM. Here is the method: as §1, §2
For assay [12] the target is unchanged. Put plainly: FACS, CD155-Fc-FLAG 10 nM, Ab 0.0064 nM. Here is the method: as §1, §2
For assay [13], the target named is T1, hu-CD96 Fc. Put plainly: SPR 37C, biotin-CD96-Fc captured, IgG analyte. Here is the method:
Briefly, a 1:4 dilution of Biotin CAPture Reagent (GE Healthcare) into HBS-EP buffer (0.01 M HEPES pH 7.4, 0.15 M NaCl, 3 mM EDTA, 0.005% Surfactant P20) was applied to the chip at 2 µL/min flow rate. For the kinetics measurements, 20 nM biotinylated hu-CD96-Fc and cy-CD96-Fc was captured at 10 µL/min to achieve ~50 response units in the second flow cell (FC2). FC1 was kept as a reference. Next, 4-fold serial dilutions of IgG in HBS-P buffer (0.01 M HEPES pH 7.4, 0.15 M NaCl, 0.005% surfactant P20) from low (3.125 nM) to high (200 nM) concentration were injected (flow rate: 10 µL/min) at 37° C. The sensorgram was recorded and subject to reference and buffer subtraction before evaluating by BIACORE® 8K Evaluation Software (version 1.1.1.7442). Association rates ($kon$) and dissociation rates ($koff$) were calculated using a simple one-to-one Langmuir binding model. The equilibrium dissociation constant (K_D) value was calculated as the ratio of $koff/kon$.

The target in assay [14] is T5, hu-CD96 isoform 2 on CHO cells. Put plainly: FACS, blocks 10 nM CD155-Fc-FLAG binding to CD96-CHO. As for the experimental part:
as §1, §2

B1: mAb1.v7.NGS9 Fab (Fab, V domains shown)
VH: EVQLVQSGAEVKKPGASVKVSCKASGFTFTNNFMHWVRQAPGQGLEWIGMIHANSGITNINEKFKNRVTMTTDTSTSTAYMELRSLRSEDTAVYYCRSDGVYEGYFDYWGQGTLVTVSS
VL: DIQLTQSPSSLSASVGDRVTITCKASQNVGTAIVWYQQKPGKAPKVLIYSASTRYTGVPSRFSGSGSGTDFTLTISSLQPEDFATYYCQQYSSSPLTFGQGTKVEIK
notes: also called W33F/P52aA/T97V
On to B1, for which the Kd (in general, the constant that tells how readily two partners part at equilibrium) is 5.85 nM with hu-CD96 Fc [1], 16.7 nM with cy-CD96 Fc, 0.1 nM in [4] and 82 nM in [5]. Also, the koff (commonly a measure of how fast the partners let go of each other) with hu-CD96 Fc [1] came to 8.32e-05 s⁻¹; in the assay with cy-CD96 Fc it was 0.000414 s⁻¹. For the same molecule, the kon – broadly, a measure of how fast the partners come together – came to 14200 M⁻¹ s⁻¹ with hu-CD96 Fc [1] and 24800 M⁻¹ s⁻¹ with cy-CD96 Fc. For the same molecule, the results for the IC50 in [2] and in [3] were 0.78 nM and 0.73 nM, respectively.

B2: mAb1.v7.NGS8 IgG (antibody, V domains shown)
VH: EVQLVQSGAEVKKPGASVKVSCKASGFTFTNNFMHWVRQAPGQGLEWIGMIHANSGITNINEKFKNRVTMTTDTSTSTAYMELRSLRSEDTAVYYCRSDGIYEGYFDYWGQGTLVTVSS
VL: DIQLTQSPSSLSASVGDRVTITCKASQNVGTAIVWYQQKPGKAPKVLIYSASTRYTGVPSRFSGSGSGTDFTLTISSLQPEDFATYYCQQYSSSPLTFGQGTKVEIKG
notes: human IgG1 N297G
Regarding B2, the “CD155-Fc binding (MedFI)” value in [6] was determined as 4960 MedFI; in assay [7], 4290 MedFI; in assay [8] it was 23600 MedFI; in assay [9] it was 4180 MedFI; in [10], 52900 MedFI; in [11] it was 47800 MedFI. In addition, in assay [12], the “CD155-Fc binding (MedFI)” value amounted to 49200 MedFI. For the same molecule, the Kd with hu-CD96 Fc [13] came out at 0.15 nM. Moreover, the koff in the assay with hu-CD96 Fc [13] turned out to be 1.99e-05 s⁻¹. Further, the kon with hu-CD96 Fc [13] worked out at 129000 M⁻¹ s⁻¹. Besides, the IC50 (commonly the concentration at which inhibition is half-maximal) in [14] was found to be 0.76 nM.

B3: mAb1.v7.NGS10 Fab (Fab, V domains shown)
VH: EVQLVQSGAEVKKPGASVKVSCKASGFTFTNNFMHWVRQAPGQGLEWIGFIHANSGITNINEKFKNRVTMTTDTSTSTAYMELRSLRSEDTAVYYCRSDGIYEGYFDYWGQGTLVTVSS
VL: DIQLTQSPSSLSASVGDRVTITCKASQNVGTAIVWYQQKPGKAPKVLIYSASTRYTGVPSRFSGSGSGTDFTLTISSLQPEDFATYYCQQYSSSPLTFGQGTKVEIK
notes: Fab; also called W33F/M50F/P52aA/T97I
In the assay with hu-CD96 Fc [1], B3 came in with a Kd of 2.1 nM, a koff of 2.6e-05 s⁻¹ and a kon of 12100 M⁻¹ s⁻¹. In the assay with cy-CD96 Fc, this molecule yielded a dissociation constant (Kd) of 30 nM, a koff of 0.000343 s⁻¹ and a kon of 11400 M⁻¹ s⁻¹. Moreover, in [2], the IC50 was found to be 0.54 nM. This molecule registered an IC50 in [3] of 0.84 nM.

B4: mAb1.v7.NGS11 Fab (Fab, V domains shown)
VH: EVQLVQSGAEVKKPGASVKVSCKASGFTFTNNFMHWVRQAPGQGLEWIGFIHANSGITNINEKFKNRVTMTTDTSTSTAYMELRSLRSEDTAVYYCRSDGVYEGYFDYWGQGTLVTVSS
VL: DIQLTQSPSSLSASVGDRVTITCKASQNVGTAIVWYQQKPGKAPKVLIYSASTRYTGVPSRFSGSGSGTDFTLTISSLQPEDFATYYCQQYSSSPLTFGQGTKVEIK
notes: also called W33F/M50F/P52aA/T97V
Consider B4, for which, in the assay with hu-CD96 Fc [1], the Kd was found to be 2.62 nM, the koff was 2.75e-05 s⁻¹ and the kon is 10500 M⁻¹ s⁻¹. In the assay with cy-CD96 Fc, this molecule came in with a Kd of 19.1 nM, a koff of 0.000215 s⁻¹ and a kon of 11200 M⁻¹ s⁻¹. This molecule also came in with an IC50 in assay [2] of 0.59 nM. Further, in [3], half-maximal inhibition (IC50) was put at 0.95 nM.
